This is an account of results in the RNAGym collection of RNA variant scans (doi:10.7554/elife.80360).

First the molecules themselves.
B1: Hairpin Ribozyme (parent)
chain: GUCCUCUUUCACGUGCGCGUGAAAGAGAGAAGUGAACCAGAGAAACACACGUUGUGGUAUAUUACCUGGUA

Variants of B1 are the subject of the series. Description: self-cleavage, relative activity (ratio to wild type); higher = more cleavage; co-transcriptional.
Turning to GUCCUCUUUCACGUGCGCGUGAAAGAGAGAAGUGAACCAGAGAAACACACCUUGUGUUAUAUUACCUGGUA [G51C G57U], the self-cleavage came to 0.204.
In the case of GUCCUCUUUCACGUGCGCGUGAAAGAGAGAAGUGAACCAGAGAAACACACCUUGUGAUAUAUUACCUGGUA [G51C G57A], the self-cleavage came to 0.147.
Next, GUCCUCUUUCACGUGCGCGUGAAAGAGAGAAGUGAACCAGAGAAACACACGAUGUGGUAUAUGACCUGGUA [U52A U63G]: 0.121; GUCCUCUUUCACGUGCGCGUGAAAGAGAGAAGUGAACCAGAGAAACACACAUUGUGGUAUAUUACCUUGUA [G51A G68U]: 0.474; GUCCUCUUUCACGUGCGCGUGAAAGAGAGAAGUGAACCAGAGAAACACACAUUGUGGUAUAUUACCUAGUA [G51A G68A]: 0.555.
In the case of GUCCUCUUUCACGUGCGCGUGAAAGAGAGAAGUGAACCAGAGAAACACACAUUGUGGUAUAUUACCUCGUA [G51A G68C] it was 0.31.
In the case of GUCCUCUUUCACGUGCGCGUGAAAGAGAGAAGUGAACCAGAGAAACACACUUUGUGGUAUAUUCCCUGGUA [G51U A64C] it was 0.188.
With GUCCUCUUUCACGUGCGCGUGAAAGAGAGAAGUGAACCAGAGAAACACACUUUGUGGUAUAUUACCUUGUA [G51U G68U], the self-cleavage was found to be 0.318.
Next, GUCCUCUUUCACGUGCGCGUGAAAGAGAGAAGUGAACCAGAGAAACACACCUUGUGGUAUACUACCUGGUA [G51C U62C]: 0.239; GUCCUCUUUCACGUGCGCGUGAAAGAGAGAAGUGAACCAGAGAAACACACGAUGUGGUAUAUUACCUGGUG [U52A A71G]: 1.12; GUCCUCUUUCACGUGCGCGUGAAAGAGAGAAGUGAACCAGAGAAACACACGAUGUGGUAUAUUACCUGGUU [U52A A71U]: 0.915.
Next, GUCCUCUUUCACGUGCGCGUGAAAGAGAGAAGUGAACCAGAGAAACACACAUUGGGGUAUAUUACCUGGUA [G51A U55G]: 0.407.
Next, GUCCUCUUUCACGUGCGCGUGAAAGAGAGAAGUGAACCAGAGAAACACACAUUGAGGUAUAUUACCUGGUA [G51A U55A]: 0.34; GUCCUCUUUCACGUGCGCGUGAAAGAGAGAAGUGAACCAGAGAAACACACAUUGCGGUAUAUUACCUGGUA [G51A U55C]: 0.405; GUCCUCUUUCACGUGCGCGUGAAAGAGAGAAGUGAACCAGAGAAACACACCUUGUGGUAUAUUACCUGUUA [G51C G69U]: 0.224.
GUCCUCUUUCACGUGCGCGUGAAAGAGAGAAGUGAACCAGAGAAACACACCUUGUGGUAUAUUACCUGAUA [G51C G69A]: the self-cleavage was 0.336.
Regarding GUCCUCUUUCACGUGCGCGUGAAAGAGAGAAGUGAACCAGAGAAACACACCUUGUAGUAUAUUACCUGGUA [G51C G56A], the self-cleavage worked out at 0.197.
With GUCCUCUUUCACGUGCGCGUGAAAGAGAGAAGUGAACCAGAGAAACACACAUUGUGGUAUAUUACCUGUUA [G51A G69U], the self-cleavage was determined as 0.439.
Turning to GUCCUCUUUCACGUGCGCGUGAAAGAGAGAAGUGAACCAGAGAAACACACAUUGUGGUAUAUUACCUGAUA [G51A G69A], the self-cleavage is 0.596.
In the case of GUCCUCUUUCACGUGCGCGUGAAAGAGAGAAGUGAACCAGAGAAACACACCUUGUGGGAUAUUACCUGGUA [G51C U58G], the self-cleavage was determined as 0.433.
Turning to GUCCUCUUUCACGUGCGCGUGAAAGAGAGAAGUGAACCAGAGAAACACACCUUGUGGCAUAUUACCUGGUA [G51C U58C], the self-cleavage came to 0.905.
With GUCCUCUUUCACGUGCGCGUGAAAGAGAGAAGUGAACCAGAGAAACACACCUUGUGGUAUAUUAUCUGGUA [G51C C65U], the self-cleavage was 0.296.
Turning to GUCCUCUUUCACGUGCGCGUGAAAGAGAGAAGUGAACCAGAGAAACACACCUUGUGGUAUAUUAACUGGUA [G51C C65A], the self-cleavage turned out to be 0.857.
In the case of GUCCUCUUUCACGUGCGCGUGAAAGAGAGAAGUGAACCAGAGAAACACACGAUGUGGUAUAAUACCUGGUA [U52A U62A] it was 0.24.
In the case of GUCCUCUUUCACGUGCGCGUGAAAGAGAGAAGUGAACCAGAGAAACACACUUUCUGGUAUAUUACCUGGUA [G51U G54C] it was 0.135; in that of GUCCUCUUUCACGUGCGCGUGAAAGAGAGAAGUGAACCAGAGAAACACACGAUGUGGUAUUUUACCUGGUA [U52A A61U], 0.094.
Next, GUCCUCUUUCACGUGCGCGUGAAAGAGAGAAGUGAACCAGAGAAACACACGAUGUGGUAUGUUACCUGGUA [U52A A61G]: 0.22; GUCCUCUUUCACGUGCGCGUGAAAGAGAGAAGUGAACCAGAGAAACACACCUUGUGGUAUAUUACCCGGUA [G51C U67C]: 0.182.
With GUCCUCUUUCACGUGCGCGUGAAAGAGAGAAGUGAACCAGAGAAACACACCUUGUGGUAUAUUACCGGGUA [G51C U67G], the self-cleavage came to 0.164.
Consider GUCCUCUUUCACGUGCGCGUGAAAGAGAGAAGUGAACCAGAGAAACACACAUUGUGCUAUAUUACCUGGUA [G51A G57C], for which the self-cleavage is 0.158.
Next, GUCCUCUUUCACGUGCGCGUGAAAGAGAGAAGUGAACCAGAGAAACACACCUUGUGGUAUAUCACCUGGUA [G51C U63C]: 0.1; GUCCUCUUUCACGUGCGCGUGAAAGAGAGAAGUGAACCAGAGAAACACACUUUGUGGUAUAUUACCCGGUA [G51U U67C]: 0.299.
Consider GUCCUCUUUCACGUGCGCGUGAAAGAGAGAAGUGAACCAGAGAAACACACUUUGUGGUAUGUUACCUGGUA [G51U A61G], for which the self-cleavage is 0.112.
In the case of GUCCUCUUUCACGUGCGCGUGAAAGAGAGAAGUGAACCAGAGAAACACACUUUGUGGUAUUUUACCUGGUA [G51U A61U] it was 0.25; in that of GUCCUCUUUCACGUGCGCGUGAAAGAGAGAAGUGAACCAGAGAAACACACUUUGUGGUAUAUCACCUGGUA [G51U U63C], 0.136; in that of GUCCUCUUUCACGUGCGCGUGAAAGAGAGAAGUGAACCAGAGAAACACACUUUGUGGUAUAUUACCUGGUC [G51U A71C], 1.46.
In the case of GUCCUCUUUCACGUGCGCGUGAAAGAGAGAAGUGAACCAGAGAAACACACAUUGUGGUAUAUUACCGGGUA [G51A U67G] it was 0.628; in that of GUCCUCUUUCACGUGCGCGUGAAAGAGAGAAGUGAACCAGAGAAACACACCUUCUGGUAUAUUACCUGGUA [G51C G54C], 0.215.
